From patent US10507233B2, “Universal N-glycan binding reagent” (New England Biolabs, Inc., priority 2014, dated 2019)

Columns and labels:
[1] = target: T1, SNAP-Fbs: human Fbs sugar binding domain, wild type, SEQ ID NO: 2, fused to SNAP-tag (fusion SEQ ID NO: 3), on beads (Homo sapiens, UniProt Q9UK22); test: Binding of 2-AB labeled M3N2 to SNAP-Fbs beads versus SNAP control beads; details: 50 picomoles, low salt buffer, SNAP-Fbs beads vs SNAP control beads
T1 construct: SNAP-only beads as control
T1 sequence (Q9UK22 113-296): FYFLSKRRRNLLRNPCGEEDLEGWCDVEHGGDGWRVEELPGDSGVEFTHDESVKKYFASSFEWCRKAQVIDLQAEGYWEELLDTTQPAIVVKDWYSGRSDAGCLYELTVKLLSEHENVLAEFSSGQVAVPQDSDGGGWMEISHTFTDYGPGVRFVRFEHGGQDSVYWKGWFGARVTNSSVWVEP
Procedure: SNAP-Fbs is efficiently conjugated to BG beads (SNAP Capture Pull-Down resin (New England Biolabs, Ipswich, Mass.): SNAP-Fbs protein is reacted with BG beads at 4° C. overnight in a DTT-containing buffer (4 mM DTT, 20 mM tris-HCl pH 7.5, 1 mM EDTA, 50 mM NaCl). After the conjugation reaction, SNAP-Fbs beads are washed with 40× bead volume of low salt buffer.
(§1) When PNGase F is used to trim N-glycans away from the peptides or proteins, the terminal GlcNAc residue becomes available for modification. A common modification is fluorophore labeling using 2-AB dye. The primary amino group of the dye performs a nucleophilic attack on the carbonyl carbon of the acyclic reducing terminal residue to form a partially stable Schiff's base. […] The conserved terminal GlcNAc residue is thus referred to as the “reducing end” of a glycan species. Upon 2-AB labeling, the carbohydrate ring structure is no longer capable of forming. Fifty picomoles of 2-AB labeled M3N2 in low salt buffer were incubated with SNAP-Fbs beads or SNAP control beads (SNAP Capture beads conjugated to SNAP-tag Purified Protein, New England Biolabs, Ipswich, Mass.).

Fetuin and RNase B = test: Pull-down of Fetuin and RNase B mixture by immobilized Fbs beads; assay type: binding; details: input defined as 1
Procedure: The same amount of wild-type Fbs, Fbs GYR mutant and PPRYR mutant proteins were conjugated to SNAP capture resin using the conditions described in Example 2 (FIG. 10B). Binding to RNase B with high mannose N-glycan and Fetuin with sialyated complex N-glycan linked glycomolecules was analyzed in a single experiment. A mixture of denatured Fetuin and RNase B (denatured by boiling for 10 minutes in the presence of 1× Rapid PNGase F buffer (New England Biolabs, Ipswich, Mass.) were pulled down by the immobilized Fbs beads conjugated with equal amount of WT, GYR or PPRYR Fbs proteins (FIGS. 10A and 10B). The bound fetuin and RNase B were eluted by 1× gel loading buffer, and analyzed by -PAGE/Coomassie blue staining. The amount of fetuin or RNase B on -PAGE gels were quantified using Image J. The ratio of Fetuin to RNase B (Fetuin/RNase B) is arbitrarily defined as 1 in the input (FIG. 10A, Lane 7 and 10C). In low salt volatile buffer conditions, wild-type Fbs pulled down a very small amount of Fetuin (FIG. 10A, Lane1), and the Fetuin/RNase B is only 0.29 (FIG. 10C), which indicates biased N-glycan linked glycomolecule binding. […]

SGP-TMR = target: T2, SGP-TMR (Homo sapiens, UniProt Q9UK22); test: Elution of bound SGP-TMR from Fbs beads; details: 100 ul 2 M ammonium bicarbonate
T2 construct: His6 (N); made in house; host or cells: E. coli
T2 sequence (Q9UK22 with tags, fused parts or gaps): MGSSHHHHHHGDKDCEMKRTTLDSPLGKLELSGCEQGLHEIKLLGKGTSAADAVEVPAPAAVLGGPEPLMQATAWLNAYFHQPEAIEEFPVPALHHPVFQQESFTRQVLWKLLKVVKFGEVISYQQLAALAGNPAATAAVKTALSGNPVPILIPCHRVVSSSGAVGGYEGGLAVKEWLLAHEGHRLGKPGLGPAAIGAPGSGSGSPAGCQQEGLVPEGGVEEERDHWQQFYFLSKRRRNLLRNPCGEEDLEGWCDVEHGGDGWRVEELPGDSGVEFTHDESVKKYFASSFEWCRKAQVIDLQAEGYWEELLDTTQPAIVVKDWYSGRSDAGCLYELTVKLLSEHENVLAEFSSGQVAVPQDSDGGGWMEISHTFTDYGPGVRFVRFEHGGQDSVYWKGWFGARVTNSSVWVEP
Procedure: N-glycan linked glycomolecules reversibly binds to Fbs beads. Different reagents were tested for releasing bound N-linked glycopeptides from Fbs beads. 100 μl Fbs beads with bound SGP-TMR were collected, washed with 300 μl low salt binding buffer once, and divided into three aliquots (30 μl beads each aliquot). 100 ul of 2 M ammonium bicarbonate (NH4HCO3), 50% acetonitrile, or 1% acetic acid were added to Fbs beads with bound SGP-TMR to elute SGP-TMR. The beads were centrifuged and supernatants were collected. The solvent in the supernatant was removed by vacuum evaporation using a speedvac, and SGP-TMR was reconstituted in low salt buffer. SGP-levels were measured as described in Example 9. […] 1% Acetic acid released approximately 65% of SGP-TMR. In contrast, less than 30% of bound N-glycan linked glycomolecules were released with 2 M ammonium bicarbonate.

[2] = Binding of 2-AB labeled M3N2 to SNAP-Fbs beads; details: low salt buffer, versus SNAP control beads
From the text: as §1

[3] = target: T3, RNase B tryptic digest spiked with SGP (Homo sapiens, UniProt Q9UK22); test: Enrichment of N-glycopeptides from RNase B tryptic digest spiked with SGP (LC-MS); assay type: binding; details: low salt or high salt volatile buffer, TIC
T3 construct: His6 (N); made in house; host or cells: E. coli
T3 sequence (Q9UK22 with tags, fused parts or gaps): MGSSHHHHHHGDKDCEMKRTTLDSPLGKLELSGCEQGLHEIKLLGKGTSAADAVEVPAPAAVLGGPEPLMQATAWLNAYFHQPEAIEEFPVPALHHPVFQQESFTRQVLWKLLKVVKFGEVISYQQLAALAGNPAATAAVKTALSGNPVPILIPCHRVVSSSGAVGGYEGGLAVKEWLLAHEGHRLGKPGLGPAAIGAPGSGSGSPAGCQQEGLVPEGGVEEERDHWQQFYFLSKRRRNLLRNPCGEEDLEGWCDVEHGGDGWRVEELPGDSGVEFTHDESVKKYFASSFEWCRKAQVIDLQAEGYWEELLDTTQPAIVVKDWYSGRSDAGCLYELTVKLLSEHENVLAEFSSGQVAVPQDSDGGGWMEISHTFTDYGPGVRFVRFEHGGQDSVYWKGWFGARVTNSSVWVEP
From the text: Fbs beads were used to capture and enrich N-glycopeptides from a complex mixture. The complex mixture was a tryptic digest of RNase B spiked with SGP to serve as a complex, sialylated glycopeptide. RNase B contains several non-glycosylated peptides and several different high mannose N-glycopeptides (labeled in the enlargement as: M5N2, M6N2). One hundred eighty-five micrograms RNase B was digested with 4 micrograms trypsin (New England Biolabs, Ipswich, Mass.) in trypsin digestion buffer and then filtered with a 10 kDa Microcon 10 centrifugal filter unit (Millipore, Billerica, Mass.) to remove trypsin and any undigested RNase B. PMSF (1 mM final concentration) was added to inhibit any residual trypsin. 100 micrograms SGP was added to the RNase B digest. Then immobilized binding reagent, SNAP-Fbs beads in this example, was mixed with the complex mixture and incubated at 4° C. for 1 hour in the presence of either low salt volatile buffer or high salt volatile buffer. The beads were washed with low salt volatile buffer or high salt volatile buffer, respectively. The bound N-glycopeptides were eluted using 50% acetonitrile, then lyophilized and analyzed by mass spec (LC-MS method). […] The dotted line indicates the chromatogram of the input mixture without enrichment. […]
The different peptides and N-glycopeptides present in the complex mixture described in Example 11 were quantified.

Molecule	binding of 2-AB labeled M3N2 [1]	Fetuin/RNase B ratio (Fetuin and RNase B; high salt volatile buffer (2 M ammonium acetate pH 7.5))	Fetuin/RNase B ratio (Fetuin and RNase B; low salt volatile buffer (50 mM ammonium acetate pH 7.5))	bound N-glycan linked glycomolecules released (SGP-TMR)	binding of 2-AB labeled M3N2 [2]	enrichment of non-glycosylated peptides [3]
CC(=O)N[C@H]1[C@H](O[C@@H]([C@H](O)[C@H](CNc2ccccc2C(N)=O)NC(C)=O)[C@H](O)CO)O[C@H](CO)[C@@H](O[C@@H]2O[C@H](CO[C@H]3O[C@H](CO)[C@@H](O)[C@H](O)[C@@H]3O)[C@@H](O)[C@H](O[C@H]3O[C@H](CO)[C@@H](O)[C@H](O)[C@@H]3O)[C@@H]2O)[C@@H]1O [2-AB labeled M3N2]	2-AB labeling disrupts the interaction between glycan and Fbs and completely abolishes binding	–	–	–	–	–
wtFbs: sugar binding domain (position 113 to 296) of human Fbs, SEQ ID NO: 2, tested as SNAP-tag fusion (SEQ ID NO: 3), free or on BG beads (protein, SNAP-tag fusion; optionally on BG beads) MGSSHHHHHHGDKDCEMKRTTLDSPLGKLELSGCEQGLHEIKLLGKGTSAADAVEVPAPAAVLGGPEPLMQATAWLNAYFHQPEAIEEFPVPALHHPVFQQESFTRQVLWKLLKVVKFGEVISYQQLAALAGNPAATAAVKTALSGNPVPILIPCHRVVSSSGAVGGYEGGLAVKEWLLAHEGHRLGKPGLGPAAIGAPGSGSGSPAGCQQEGLVPEGGVEEERDHWQQFYFLSKRRRNLLRNPCGEEDLEGWCDVEHGGDGWRVEELPGDSGVEFTHDESVKKYFASSFEWCRKAQVIDLQAEGYWEELLDTTQPAIVVKDWYSGRSDAGCLYELTVKLLSEHENVLAEFSSGQVAVPQDSDGGGWMEISHTFTDYGPGVRFVRFEHGGQDSVYWKGWFGARVTNSSVWVEP	–	0.92	0.29	less than 30%	disrupts the interaction	not enriched
